According to patent US20230151091A1 (NEW YORK UNIVERSITY, published 2023):
Values belong to the binder of their own block, whether it stands above or below them.

How the values were obtained:
[1] = target: T1, mouse MuSK, endogenous (C2C12 myotubes; neuromuscular synapses of mice) (mouse, UniProt Q61006 22-868); assay: cell-based or functional assay
T1 sequence (looked up): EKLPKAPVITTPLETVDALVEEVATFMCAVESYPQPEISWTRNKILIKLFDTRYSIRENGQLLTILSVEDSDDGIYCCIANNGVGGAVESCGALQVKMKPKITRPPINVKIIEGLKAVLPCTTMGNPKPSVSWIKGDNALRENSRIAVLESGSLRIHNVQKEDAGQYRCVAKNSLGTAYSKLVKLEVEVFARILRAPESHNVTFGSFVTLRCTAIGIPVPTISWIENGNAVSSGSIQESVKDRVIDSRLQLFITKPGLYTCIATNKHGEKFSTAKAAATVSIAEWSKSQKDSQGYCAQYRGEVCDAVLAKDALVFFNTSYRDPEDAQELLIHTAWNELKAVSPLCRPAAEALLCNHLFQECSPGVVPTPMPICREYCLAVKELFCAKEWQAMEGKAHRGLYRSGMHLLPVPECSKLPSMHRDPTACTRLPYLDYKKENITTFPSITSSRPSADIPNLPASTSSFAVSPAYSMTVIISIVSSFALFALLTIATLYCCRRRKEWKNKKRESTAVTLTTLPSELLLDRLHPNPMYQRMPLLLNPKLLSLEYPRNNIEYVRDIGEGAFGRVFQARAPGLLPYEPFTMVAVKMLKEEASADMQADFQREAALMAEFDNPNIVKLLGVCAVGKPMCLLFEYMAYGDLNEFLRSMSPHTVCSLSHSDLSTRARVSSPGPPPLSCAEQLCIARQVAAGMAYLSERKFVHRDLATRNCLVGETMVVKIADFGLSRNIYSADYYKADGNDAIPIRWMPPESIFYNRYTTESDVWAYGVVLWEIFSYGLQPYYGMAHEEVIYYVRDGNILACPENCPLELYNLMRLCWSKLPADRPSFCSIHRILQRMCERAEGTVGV

cynomolgus monkey MuSK [2] = target: T2, cynomolgus monkey MuSK (cynomolgus monkey, UniProt A0A2K5USF6 24-487); assay: Biacore, MuSK on chip, association pH 7.4, dissociation pH 5.5
Method: (§1) For affinity determination, a CMS chip was coated with cynomolgus monkey, rat and mouse MuSK (200RU) and 66.7 nM of antibody was applied and kinetic parameters calculated (Table 8). The following conclusions could be drawn: (1) 3B2g1m3 and 3B2g2m3 (m3 variants) show significant drop in affinity for MuSK for all species tested; (2) 3B2g1m2 and 3B2g2m2 (m2 variants) show some drop in affinity for MuSK; (3) 3B2g1m1, 3B2g2m1, 3B2g1m4, 3B2g2m4 (ml and m4 variants) show no drop in affinity for MuSK for all species tested; and (4) for all clones there is no difference between g1 and g2 variants (VL methionine versus serine in CDR3).
(§2) In order to study pH dependent binding of our antibodies to MuSK, the same Biacore was used as above, but now dissociation was done at pH 5.5 instead of pH 7.4. […] The following conclusions could be drawn for the different variants: (1) 3B2g1m3 and 3B2g2m3 (m3 variants) show significant drop in affinity for MuSK for all species tested; (2) 3B2g1m2 and 3B2g2m2 (m2 variants) show some drop in affinity for MuSK; (3) 3B2g1m1, 3B2g2m1, 3B2g1m4, 3B2g2m4 (m1 and m4 variants) show no drop in affinity for MuSK for all species tested; and (4) for all clones there is no difference between g1 and g2 variants (VL methionine versus serine in CDR3).

mouse MuSK [3] = target: T3, mouse MuSK (mouse, UniProt Q61006 22-494, limits assumed); assay: as above
T3 construct: Coated on ELISA plates or on the Biacore chip; also called full length mouse MuSK; mouse MuSK (in house produced in HEK293 cells)
T3 sequence (looked up): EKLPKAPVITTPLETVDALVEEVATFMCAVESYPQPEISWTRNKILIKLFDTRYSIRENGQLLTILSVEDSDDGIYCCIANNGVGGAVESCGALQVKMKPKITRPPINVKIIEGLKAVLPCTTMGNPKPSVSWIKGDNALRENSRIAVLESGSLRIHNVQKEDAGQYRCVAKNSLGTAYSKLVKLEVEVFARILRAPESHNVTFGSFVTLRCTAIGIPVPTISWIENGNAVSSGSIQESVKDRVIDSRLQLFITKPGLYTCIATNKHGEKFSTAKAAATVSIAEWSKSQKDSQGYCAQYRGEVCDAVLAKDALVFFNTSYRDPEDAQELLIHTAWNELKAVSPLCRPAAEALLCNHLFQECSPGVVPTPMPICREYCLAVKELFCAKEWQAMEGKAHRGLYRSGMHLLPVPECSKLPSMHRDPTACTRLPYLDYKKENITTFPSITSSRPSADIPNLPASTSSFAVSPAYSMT
Method: as §1, §2

rat MuSK [4] = target: T4, rat MuSK (rat, UniProt Q62838 22-494, limits assumed); assay: as above
T4 construct: Coated on Biacore chip (200RU) or ELISA plate
T4 sequence (looked up): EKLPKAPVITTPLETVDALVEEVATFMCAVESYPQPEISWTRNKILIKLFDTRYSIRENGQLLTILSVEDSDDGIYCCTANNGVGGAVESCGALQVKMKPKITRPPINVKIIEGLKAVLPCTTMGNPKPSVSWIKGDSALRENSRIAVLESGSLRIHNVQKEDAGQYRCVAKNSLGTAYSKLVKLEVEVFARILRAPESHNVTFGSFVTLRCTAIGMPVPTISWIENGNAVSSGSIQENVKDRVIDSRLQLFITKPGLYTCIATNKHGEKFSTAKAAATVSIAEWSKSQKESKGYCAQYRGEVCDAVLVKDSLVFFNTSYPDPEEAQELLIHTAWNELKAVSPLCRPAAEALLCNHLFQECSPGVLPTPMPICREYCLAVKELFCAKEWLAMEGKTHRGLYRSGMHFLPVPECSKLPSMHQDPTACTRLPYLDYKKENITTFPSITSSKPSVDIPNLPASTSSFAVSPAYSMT
Method: as §1, §2

cynomolgus monkey MuSK [5] = target: T2, cynomolgus monkey MuSK; assay: Biacore, MuSK on chip (200RU), 66.7 nM mAb, dissociation pH 7.4
Method: as §1

mouse MuSK [6] = target: T3, mouse MuSK; assay: as above
Method: as §1

rat MuSK [7] = target: T4, rat MuSK; assay: as above
Method: as §1

mouse MuSK [8] = target: T3, mouse MuSK; assay: Biacore, MuSK on chip, association pH 7.4, dissociation pH 5.5; association at pH 7.4, dissociation at pH 5.5
Method: as §1, §2

[9] = target: T5, mFz: Fz domain and C-terminal flanking sequence of mouse MuSK (D307 to T494) with C-terminal Avi- and … (mouse, UniProt Q61006 307-494, limits assumed, biotinylated in vitro using the BirA enzyme); assay: bead-binding assay, IgG format: biotinylated antigen on streptavidin beads, flow cytometry, 1:1 fit; average ± s.d., n=3
T5 construct: also called mouse Fz; not shown: Avi- and His6-tags
T5 sequence (looked up): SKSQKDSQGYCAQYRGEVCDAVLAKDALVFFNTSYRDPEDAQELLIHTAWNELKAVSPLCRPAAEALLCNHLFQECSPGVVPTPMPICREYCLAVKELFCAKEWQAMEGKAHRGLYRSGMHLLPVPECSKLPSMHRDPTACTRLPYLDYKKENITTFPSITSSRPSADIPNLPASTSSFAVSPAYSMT

[10] = target: T6, hECD: full-length extracellular region of human MuSK (E22 to T495) with C-terminal Avi- and His6-tags (human, UniProt O15146 22-495, biotinylated in vitro using the BirA enzyme); assay: as above
T6 construct: also called human ECD; not shown: Avi- and His6-tags
T6 sequence: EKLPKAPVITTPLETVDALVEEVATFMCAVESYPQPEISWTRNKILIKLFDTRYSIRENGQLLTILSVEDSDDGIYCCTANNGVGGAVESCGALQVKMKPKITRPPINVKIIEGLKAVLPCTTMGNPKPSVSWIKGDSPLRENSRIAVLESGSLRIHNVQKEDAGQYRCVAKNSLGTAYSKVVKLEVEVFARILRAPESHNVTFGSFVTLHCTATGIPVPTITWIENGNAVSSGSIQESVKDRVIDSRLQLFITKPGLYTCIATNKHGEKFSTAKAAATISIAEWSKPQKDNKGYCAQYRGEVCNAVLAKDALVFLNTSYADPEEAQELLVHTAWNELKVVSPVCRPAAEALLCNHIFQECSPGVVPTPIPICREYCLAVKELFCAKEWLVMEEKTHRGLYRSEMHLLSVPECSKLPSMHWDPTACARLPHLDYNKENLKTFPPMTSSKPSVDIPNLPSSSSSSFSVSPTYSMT

[11] = target: T7, mECD: full-length extracellular region of mouse MuSK (E22 to T494) with C-terminal Avi- and His6-tags (mouse, UniProt Q61006 22-494, biotinylated in vitro using the BirA enzyme); assay: as above
T7 construct: range 22-494; also called mouse ECD; not shown: Avi- and His6-tags
T7 sequence (looked up): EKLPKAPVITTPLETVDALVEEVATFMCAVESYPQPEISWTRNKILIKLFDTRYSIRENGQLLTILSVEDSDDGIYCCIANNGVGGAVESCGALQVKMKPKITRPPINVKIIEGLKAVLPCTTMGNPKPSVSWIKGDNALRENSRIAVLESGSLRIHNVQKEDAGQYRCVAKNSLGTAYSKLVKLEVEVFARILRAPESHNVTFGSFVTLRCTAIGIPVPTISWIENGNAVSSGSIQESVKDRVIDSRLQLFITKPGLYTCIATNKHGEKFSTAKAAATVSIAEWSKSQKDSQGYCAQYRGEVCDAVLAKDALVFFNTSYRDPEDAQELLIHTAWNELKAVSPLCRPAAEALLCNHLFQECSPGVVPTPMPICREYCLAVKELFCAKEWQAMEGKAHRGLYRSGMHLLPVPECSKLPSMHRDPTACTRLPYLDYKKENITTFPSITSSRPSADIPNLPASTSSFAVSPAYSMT

[12] = target: T8, hFz: Fz domain and C-terminal flanking sequence of human MuSK (K314-T495) with C-terminal Avi- and His6-tags (human, UniProt O15146 314-495, biotinylated in vitro using the BirA enzyme); assay: as above
T8 construct: also called human Fz; not shown: Avi- and His6-tags
T8 sequence: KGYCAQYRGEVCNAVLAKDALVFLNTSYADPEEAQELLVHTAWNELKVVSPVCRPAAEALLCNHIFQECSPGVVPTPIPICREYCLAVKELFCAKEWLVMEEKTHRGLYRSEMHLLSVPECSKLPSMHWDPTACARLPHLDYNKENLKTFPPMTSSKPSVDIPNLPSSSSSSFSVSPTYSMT

[13] = target: T1, mouse MuSK, endogenous (C2C12 myotubes; …); assay: in vivo: wildtype mice injected i.p., diaphragm stained two days later with anti-human F(ab')2 Alexa 647 and Alexa 488-alpha-BGT; ratio of signal intensities at the synapse [continued]

T2 sequence (A0A2K5USF6 entry or part of it): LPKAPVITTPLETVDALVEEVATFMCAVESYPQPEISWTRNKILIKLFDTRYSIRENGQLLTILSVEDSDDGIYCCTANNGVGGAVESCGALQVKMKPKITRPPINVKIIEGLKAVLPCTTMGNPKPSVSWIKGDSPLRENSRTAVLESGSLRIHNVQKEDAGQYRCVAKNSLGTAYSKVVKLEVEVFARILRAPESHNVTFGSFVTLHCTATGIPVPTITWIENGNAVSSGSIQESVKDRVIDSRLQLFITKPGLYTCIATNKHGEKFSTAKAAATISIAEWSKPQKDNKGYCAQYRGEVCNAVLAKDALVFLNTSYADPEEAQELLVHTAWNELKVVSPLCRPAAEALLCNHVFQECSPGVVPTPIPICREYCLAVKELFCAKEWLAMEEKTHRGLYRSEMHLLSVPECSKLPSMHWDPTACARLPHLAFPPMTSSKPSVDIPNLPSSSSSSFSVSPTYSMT

MuSK phosphorylation in C2C12 myotubes [1]: ~80 % of 1 nM agrin
R0 (cynomolgus monkey MuSK [2]): 148 RU
koff (cynomolgus monkey MuSK [2]): 0.0034 s⁻¹
kon (cynomolgus monkey MuSK [2]): 800000 M⁻¹ s⁻¹
R0 (mouse MuSK [3]): 152 RU
kon (mouse MuSK [3]): 70000 M⁻¹ s⁻¹
R0 (rat MuSK [4]): 136 RU
koff (rat MuSK [4]): 0.0865 s⁻¹
kon (rat MuSK [4]): 40000 M⁻¹ s⁻¹
R0 (cynomolgus monkey MuSK [5]): 133 RU
koff (cynomolgus monkey MuSK [5]): 0.00183 s⁻¹
kon (cynomolgus monkey MuSK [5]): 850000 M⁻¹ s⁻¹
R0 (mouse MuSK [6]): 155 RU
koff (mouse MuSK [6]): 0.00253 s⁻¹
kon (mouse MuSK [6]): 1.61e+06 M⁻¹ s⁻¹
R0 (rat MuSK [7]): 125 RU
koff (rat MuSK [7]): 0.00314 s⁻¹
kon (rat MuSK [7]): 1.45e+06 M⁻¹ s⁻¹
koff (mouse MuSK [8]): 0.00915 s⁻¹
B1: 3B2g1m2 (antibody, human IgG1, V domains shown)
VH: EVQLLESGGGLVQPGGSLRLSCAASGFTFSDYGMSWVRQAPGKGLEWVSAIPGSGGSTYYKESVKGRFTISRDNSKNTLYLQMNSLRAEDTAVYYCAKRSGRIAFGALDAWGQGTLVTVSS
VL: QTVVTQEPSFSVSPGGTVTLTCGLSSGSVTSSNYPDWYQQTPGQAPRTLIYSTDSRHSGVPDRFSGSILGNKAALTITGAQADDESDYYCGLYMYSGSKNYVFGGGTKLTVL
notes: human IgG1-LALA backbone; produced in HEK293 cells

Kd [9]: 740 pM
Kd [10]: 970 pM
Kd [11]: 1100 pM
Kd [12]: 610 pM
EC50 (read off the curve) [13]: ~0.5 mg/kg
B2: mIgG2a-X17 (antibody, V domains shown)
VH: EVQLVESGGGLVQPGGSLRLSCAASGFTISYSSIHWVRQAPGKGLEWVASIYSSSGSTYYADSVKGRFTISADTSKNTAYLQMNSLRAEDTAVYYCARGDHGYYVFGYLGMDYWGQGTLVTVSS
VL: DIQMTQSPSSLSASVGDRVTITCRASQSVSSAVAWYQQKPGKAPKLLIYSASSLYSGVPSRFSGSRSGTDFTLTISSLQPEDFATYYCQQSYKPGALITFGQGTKVEIK
notes: chimeric antibody of a human Fab (human CH1) and mouse IgG2a Fc with the LALAPG mutations; also called X17-mIgG2a-LALAPG; antibody X17
